Test results reported in doi:10.1101/2025.10.28.685015 (bioRxiv, 2025).
No end group written: not given here.

Molecular target: T1, biotinylated ALFA-tag peptide (WT) (synthetic construct, also: biotin with double DoA linker, end not given here)
T1 chain: SRLEEELRRRLTE
Experiment: BLI

Kd: 0.165 ± 0.002 nM
B1: ALFA nanobody (NbALFA) (VHH)
VHH: EVQLQESGGGLVQPGGSLRLSCTASGVTISALNAMAMGWYRQAPGERRVMVAAVSERGNAMYRESVQGRFTVTRDFTNKMVSLQMDNLKPEDTAVYYCHVLEDRVDSFHDYWGQGTQVTVSS
